Columns and labels:
mouse VEGF165 = target: T1, mouse VEGF165 (Mus musculus, UniProt Q00731); assay: Biacore binding affinity (KD) to mouse VEGF
T1 sequence (Q00731 27-190 isoform Q00731-2): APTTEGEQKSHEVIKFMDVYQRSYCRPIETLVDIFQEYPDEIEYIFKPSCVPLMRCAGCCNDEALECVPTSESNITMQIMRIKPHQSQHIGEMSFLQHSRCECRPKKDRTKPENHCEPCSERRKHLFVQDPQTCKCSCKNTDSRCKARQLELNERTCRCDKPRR
Description: (§1) The KDs of parental antibodies anti-VEGF 219R45 (IgG format), anti-DLL4 21R79 (IgG format), anti-DLL4 21M18 (IgG format) and bispecific antibodies 219R45-MB-21M18 and 219R45-MB-21R79 were determined using a Biacore 2000 system from Biacore LifeSciences (GE Healthcare). Recombinant human DLL4-Fc or mouse DLL4-Fc proteins were immobilized on CM5 carboxyl chips using standard amine-based chemistry (NHS/EDC) and blocked with ethanolamine. Recombinant human VEGF165 or mouse VEGF165 were biotinylated and immobilized on streptavidin chips. The antibodies were serially diluted 2-fold from 100 nM to 0.78 nM in HBS-P (0.01M HEPES pH7.4, 0.15M NaCl, 0.005% v/v Polysorbate 20). For each antibody, all 8 dilutions were sequentially injected over a specific chip. Kinetic data were collected over time and were fit using the simultaneous global fit equation to yield affinity constants (KD values) for each bispecific antibody.

mouse DLL4-Fc = assay: Biacore binding affinity (KD) to mouse DLL4; settings: Biacore 2000, mouse DLL4-Fc on CM5 chip; read-out: KD mDLL4
Description: as §1

[1] = system: DLL4-induced Notch signaling; assay: DLL4-induced Notch signaling luciferase reporter assay in Notch2-expressing PC3 cells; assay type: cell-based; settings: coated human DLL4 100 ng/well, antibody 20 to 0.064 ug/ml
Description: FIG. 4. Inhibition of DLL4-induced Notch signaling by anti-VEGF/anti-DLL4 bispecific antibodies. Luciferase activity was measured using a dual luciferase assay kit with firefly luciferase activity normalized to Renilla luciferase activity. 219R45-MB-21M18 (-●-); 219R45-MB-21R79 (-▪-); 21M18 (-∘-); 21R79 (-□-).
Human PC3 cells were transfected with an expression vector encoding a full-length human Notch2 receptor and a firefly luciferase reporter vector (8× CBF-luciferase reporter) that is responsive to Notch signaling. The cells were also transfected with a Renilla luciferase reporter (Promega, Madison, Wis.) as an internal control for transfection efficiency. Purified human DLL4 protein was coated onto 96-well plates at 100 ng/well and Notch2-expressing PC3-luc cells were added to the wells. Anti-VEGF/anti-DLL4 bispecific antibodies 219R45-MB-21M18, 219R45-MB-21R79, parental anti-DLL4 antibodies 21M18, 21R79 or a control antibody LZ1 were serially diluted 5-fold from 20 ug/ml to 0.064 ug/ml, added to the appropriate wells, and incubated overnight. Luciferase activity was determined using a dual luciferase assay kit (Promega, Madison, Wis.) with firefly luciferase activity normalized to Renilla luciferase activity.

[2] = system: OMP-PN8 pancreatic tumor cells; assay: Tumorigenicity of OMP-PN8 pancreatic tumor cells after treatment (serial transplantation); assay type: in vivo, NOD/SCID mice; settings: 90 cells from treated tumors transplanted, day 55, no treatment; 21M18, bevacizumab 15 mg/kg, bispecifics 30 mg/kg, gemcitabine 70 mg/kg, four weeks
Description: FIG. 6. Tumorigenicity of pancreatic tumor cells after treatment with anti-VEGF/anti-DLL4 bispecific antibodies. OMP-PN8 tumor cells from mice treated with control antibody, anti-hDLL4 antibody 21M18, anti-VEGF antibody bevacizumab, or anti-VEGF/anti-DLL4 bispecific antibodies 219R45-MB-21M18 or 219R45-MB-21R79 with or without gemcitabine were processed to single cell suspensions, and serially transplanted into mice. 90 cells from each treatment group were injected subcutaneously into NOD/SCID mice. Tumors were allowed to grow with no treatment. Data is shown as tumor volume (mm^3) on day 55. Tumor frequency is shown as number of tumors over total number of mice injected in each group.
Mice bearing OMP-PN8 pancreatic tumors were treated with control antibody (15 mg/kg), anti-hDLL4 antibody 21M18 (15 mg/kg), anti-VEGF antibody bevacizumab (15 mg/kg), or anti-VEGF/anti-DLL4 bispecific antibodies 219R45-MB-21M18 or 219R45-MB-21R79 (30 mg/kg) with or without gemcitabine (70 mg/kg). Following four weeks of treatment, tumors were harvested, processed to single cell suspensions and the human tumor cells were purified by immunomagnetic depletion of murine cells. 90 human tumor cells from each treatment group were transferred to a new cohort of mice (n=10 mice/group). Tumors were allowed to grow for 55 days without any treatment and tumor volumes were measured with electronic calipers.

OMP-C8 colon tumor = assay: Tumorigenicity of OMP-C8 colon tumors after treatment (serial transplantation); assay type: in vivo, NOD/SCID mice; settings: 150 cells from treated tumors transplanted, day 68; for tumor growth frequency, single agents: without irinotecan combination
Description: FIG. 10. Tumorigenicity of […] colon tumor cells after treatment with anti-VEGF/anti-DLL4 bispecific antibodies. Tumors from mice treated with control antibody, anti-hDLL4 antibody 21M18, anti-VEGF antibody bevacizumab, a combination of 21M18 and bevacizumab, or anti-VEGF/anti-DLL4 bispecific antibodies 219R45-MB-21M18 or 219R45-MB-21R79 with or without irinotecan were processed to single cell suspensions, and serially transplanted into mice. 150 cells from each treatment group were injected subcutaneously into NOD/SCID mice. Tumors were allowed to grow with no treatment. Data are shown as tumor volume (mm^3) on day 68.
Single cell suspensions of OMP-C8 colon tumor xenografts (20,000 cells) were injected subcutaneously into the flanks of 6-8 week old NOD/SCID mice. Tumors were allowed to grow for 33 days until they reached an average volume of 300 mm^3. The mice were randomized (n=5 per group) and treated with anti-DLL4 antibody 21M18, anti-VEGF antibody bevacizumab, a combination of antibodies 21M18 and bevacizumab, anti-VEGF/anti-DLL4 bispecific antibody 219R45-MB-21M18, anti-VEGF/anti-DLL4 bispecific antibody 219R45-MB-21R79, or control antibody, either in combination with irinotecan or without irinotecan. Antibodies and irinotecan were dosed weekly by injection into the intraperitoneal cavity. Antibodies 21M18 and bevacizumab were dosed at 7.5 mg/kg, bispecific antibodies 219R45-MB-21M18 and 219R45-MB-21R79 were dosed at 15 mg/kg, and irinotecan was dosed at 45 mg/kg. Tumors were harvested after 4 weeks, processed into single cell suspensions, and the human tumor cells were isolated. 150 tumor cells from each experimental group were injected subcutaneously into a new cohort of mice (n=10 per group) and tumors were allowed to grow without treatment. Tumor growth was monitored and tumor volumes were measured with electronic calipers.

Chain of mouse DLL4-Fc (Q9JI71 27-519 limits assumed): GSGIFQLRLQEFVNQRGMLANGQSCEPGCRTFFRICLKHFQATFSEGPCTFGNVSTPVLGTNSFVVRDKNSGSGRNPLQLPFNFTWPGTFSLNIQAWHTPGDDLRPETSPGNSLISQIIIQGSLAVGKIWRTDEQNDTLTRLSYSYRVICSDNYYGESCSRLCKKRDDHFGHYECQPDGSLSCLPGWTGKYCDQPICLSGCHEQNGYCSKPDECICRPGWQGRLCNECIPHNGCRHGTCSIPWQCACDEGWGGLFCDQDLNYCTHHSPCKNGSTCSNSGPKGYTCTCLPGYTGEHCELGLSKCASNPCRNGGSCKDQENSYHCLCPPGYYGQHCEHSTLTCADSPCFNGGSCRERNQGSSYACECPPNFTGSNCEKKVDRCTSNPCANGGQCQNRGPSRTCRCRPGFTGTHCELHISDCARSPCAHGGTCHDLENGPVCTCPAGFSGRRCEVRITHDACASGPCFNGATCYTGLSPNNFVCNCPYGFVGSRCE

B1: 21M18: anti-DLL4 antibody, parental antibody (Hoey et al., 2009; U.S. Pat. No. 7,750,124) (antibody, V domains shown)
VH: QVQLVQSGAEVKKPGASVKISCKASGYSFTAYYIHWVKQAPGQGLEWIGYISSYNGATNYNQKFKGRVTFTTDTSTSTAYMELRSLRSDDTAVYYCARDYDYDVGMDYWGQGTLVTVSS
VL: DIVMTQSPDSLAVSLGERATISCRASESVDNYGISFMKWFQQKPGQPPKLLIYAASNQGSGVPDRFSGSGSGTDFTLTISSLQAEDVAVYYCQQSKEVPWTFGGGTKVEIK
What does the source list for B1?
Kd (mouse VEGF165; Biacore 2000, biotinylated mouse VEGF165 on streptavidin chip, read-out: KD mVEGF): > 100 nM; Kd (mouse DLL4-Fc): > 100 nM; inhibition of DLL4-induced Notch signaling [1]: inhibited DLL4-induced Notch signaling; tumor growth frequency (mice with tumors) [2]: 5 out of 10; tumor growth frequency, single agents (OMP-C8 colon tumor): reduced tumor growth frequency

B2: 219R45-MB-21R79: anti-VEGF/anti-DLL4 monovalent/bispecific antibody, heavy chains SEQ ID NO:7 and 6, light chains SEQ ID NO:8 (antibody)
heavy 1: QVQLVQSGAEVKKPGASVKVSCKASGYTFTNYWMHWVRQAPGQGLEWMGDINPSNGRTSYKEKFKRRVTLSVDKSSSTAYMELSSLRSEDTAVYFCTIHYDDKYYPLMDYWGQGTLVTVSSASTKGPSVFPLAPCSRSTSESTAALGCLVKDYFPEPVTVSWNSGALTSGVHTFPAVLQSSGLYSLSSVVTVPSSNFGTQTYTCNVDHKPSNTKVDKTVERKCCVECPPCPAPPVAGPSVFLFPPKPKDTLMISRTPEVTCVVVDVSHEDPEVQFNWYVDGVEVHNAKTKPREEQFNSTFRVVSVLTVVHQDWLNGKEYKCKVSNKGLPAPIEKTISKTKGQPREPQVYTLPPSREKMTKNQVSLTCLVKGFYPSDIAVEWESNGQPENNYKTTPPMLKSDGSFFLYSKLTVDKSRWQQGNVFSCSVMHEALHNHYTQKSLSLSPGK
heavy 2: QVQLVQSGAEVKKPGASVKISCKASGYSFTAYYIHWVKQAPGQGLEWIGYIANYNRATNYNQKFKGRVTFTTDTSTSTAYMELRSLRSDDTAVYYCARDYDYDVGMDYWGQGTLVTVSSASTKGPSVFPLAPCSRSTSESTAALGCLVKDYFPEPVTVSWNSGALTSGVHTFPAVLQSSGLYSLSSVVTVPSSNFGTQTYTCNVDHKPSNTKVDKTVERKCCVECPPCPAPPVAGPSVFLFPPKPKDTLMISRTPEVTCVVVDVSHEDPEVQFNWYVDGVEVHNAKTKPREEQFNSTFRVVSVLTVVHQDWLNGKEYKCKVSNKGLPAPIEKTISKTKGQPREPQVYTLPPSREEMTKNQVSLTCLVEGFYPSDIAVEWESNGQPENNYKTTPPMLDSDGSFFLYSELTVDKSRWQQGNVFSCSVMHEALHNHYTQKSLSLSPGK
light: DIVMTQSPDSLAVSLGERATISCRASESVDNYGISFMKWFQQKPGQPPKLLIYAASNQGSGVPDRFSGSGSGTDFTLTISSLQAEDVAVYYCQQSKEVPWTFGGGTKVEIKRTVAAPSVIFPPSDEQLKSGTASVVCLLNNFYPREAKVQWKVDNALQSGNSQESVTEQDSKDSTYSLSSTLTLSKADYEKHKVYACEVTHQGLSSPVTKSFNRGEC
modifications: 21R79 Heavy chain without predicted signal sequence; Light chain without predicted signal sequence
B2 was tested. Which “binding to mouse VEGF (in words)” value (mouse VEGF165) did it give?
Its value is “bind mouse VEGF”.

And the Kd (mouse DLL4-Fc)?
Its Kd is greater than 100 nM.

What about the “inhibition of DLL4-induced Notch signaling” value [1] of the same molecule?
Its value is “inhibited DLL4-induced Notch signaling”.

What about the “tumor growth frequency (mice with tumors)” value [2] of the same molecule?
Its value is 4 out of 10.

And the “tumor growth frequency, single agents” value (OMP-C8 colon tumor)?
The value was “reduced tumor growth frequency”.

B3: 219R45-MB-21M18: anti-VEGF/anti-DLL4 monovalent/bispecific antibody, heavy chains SEQ ID NO:7 and 5, light chains SEQ ID NO:8 (antibody)
heavy 1: QVQLVQSGAEVKKPGASVKVSCKASGYTFTNYWMHWVRQAPGQGLEWMGDINPSNGRTSYKEKFKRRVTLSVDKSSSTAYMELSSLRSEDTAVYFCTIHYDDKYYPLMDYWGQGTLVTVSSASTKGPSVFPLAPCSRSTSESTAALGCLVKDYFPEPVTVSWNSGALTSGVHTFPAVLQSSGLYSLSSVVTVPSSNFGTQTYTCNVDHKPSNTKVDKTVERKCCVECPPCPAPPVAGPSVFLFPPKPKDTLMISRTPEVTCVVVDVSHEDPEVQFNWYVDGVEVHNAKTKPREEQFNSTFRVVSVLTVVHQDWLNGKEYKCKVSNKGLPAPIEKTISKTKGQPREPQVYTLPPSREKMTKNQVSLTCLVKGFYPSDIAVEWESNGQPENNYKTTPPMLKSDGSFFLYSKLTVDKSRWQQGNVFSCSVMHEALHNHYTQKSLSLSPGK
heavy 2: QVQLVQSGAEVKKPGASVKISCKASGYSFTAYYIHWVKQAPGQGLEWIGYISSYNGATNYNQKFKGRVTFTTDTSTSTAYMELRSLRSDDTAVYYCARDYDYDVGMDYWGQGTLVTVSSASTKGPSVFPLAPCSRSTSESTAALGCLVKDYFPEPVTVSWNSGALTSGVHTFPAVLQSSGLYSLSSVVTVPSSNFGTQTYTCNVDHKPSNTKVDKTVERKCCVECPPCPAPPVAGPSVFLFPPKPKDTLMISRTPEVTCVVVDVSHEDPEVQFNWYVDGVEVHNAKTKPREEQFNSTFRVVSVLTVVHQDWLNGKEYKCKVSNKGLPAPIEKTISKTKGQPREPQVYTLPPSREEMTKNQVSLTCLVEGFYPSDIAVEWESNGQPENNYKTTPPMLDSDGSFFLYSELTVDKSRWQQGNVFSCSVMHEALHNHYTQKSLSLSPGK
light: DIVMTQSPDSLAVSLGERATISCRASESVDNYGISFMKWFQQKPGQPPKLLIYAASNQGSGVPDRFSGSGSGTDFTLTISSLQAEDVAVYYCQQSKEVPWTFGGGTKVEIKRTVAAPSVIFPPSDEQLKSGTASVVCLLNNFYPREAKVQWKVDNALQSGNSQESVTEQDSKDSTYSLSSTLTLSKADYEKHKVYACEVTHQGLSSPVTKSFNRGEC
modifications: 21R79 Heavy chain without predicted signal sequence; 21M18 Heavy chain without predicted signal sequence; Light chain without predicted signal sequence
For B3, which “binding to mouse VEGF (in words)” value (mouse VEGF165) is on record?
Its value is “bind mouse VEGF”.

What about the Kd (mouse DLL4-Fc) of the same molecule?
The Kd was greater than 100 nM.

And the “inhibition of DLL4-induced Notch signaling” value [1]?
Its value is “inhibited DLL4-induced Notch signaling only at high antibody concentrations”.

And the “tumor growth frequency (mice with tumors)” value [2]?
The value was 5 out of 10.

And the “tumor growth frequency, combination of irinotecan and antibodies” value (OMP-C8 colon tumor; with irinotecan 45 mg/kg)?
Its value is “had the greatest effect in reducing tumor growth frequency”.

What about the “tumor growth frequency, single agents” value (OMP-C8 colon tumor) of the same molecule?
Its value is “reduced tumor growth frequency”.
